Test results: patent US20140087995A1 (published 2014)
Numbered stars: 1 amine (or outer) side, 2 acyl side, 3 side chain; on linkers, the order of the positions; unused ones are H or OH. Bridge positions count the residues as written; N and C are the ends. Side chains are listed from the residue outwards. Ends that are not written are not given here. * marks the point of attachment. C20 diacid = O=C(O)CCCCCCCCCCCCCCCCCCC(=O)*; γGlu = O=C(O)[C@H](CCC(=O)[*:2])N[*:1]

T1: human calcitonin receptor (human, UniProt P30988 25-474)
T1 construct: whole, on cells; Used as cell membranes; also called hCTR; hCT
T1 sequence (looked up): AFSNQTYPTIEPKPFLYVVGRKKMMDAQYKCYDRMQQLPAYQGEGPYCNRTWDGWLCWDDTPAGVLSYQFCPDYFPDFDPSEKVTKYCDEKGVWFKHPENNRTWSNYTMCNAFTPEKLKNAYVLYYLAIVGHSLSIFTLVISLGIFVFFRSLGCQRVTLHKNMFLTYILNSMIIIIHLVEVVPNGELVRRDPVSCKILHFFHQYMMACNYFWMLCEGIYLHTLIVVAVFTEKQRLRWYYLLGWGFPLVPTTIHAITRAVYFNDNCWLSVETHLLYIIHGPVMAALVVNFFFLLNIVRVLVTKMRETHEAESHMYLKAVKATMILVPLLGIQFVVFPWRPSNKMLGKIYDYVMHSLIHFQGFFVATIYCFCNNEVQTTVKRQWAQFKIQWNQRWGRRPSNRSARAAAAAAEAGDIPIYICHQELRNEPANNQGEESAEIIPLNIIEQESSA


Experiments:
[1] = biological target: T1, human calcitonin receptor; test: ratio of hCTR IC50 to hAmylin-R IC50 (reference: human amylin receptor)
How it was run: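 Scintillation proximity competition binding on cell membranes at 35 ng/μL with SPA beads, in 50 mM Hepes pH 7.4, 1 mM CaCl2, 5 mM MgCl₂, 0.1% OA, 0.02% Tween20. Incubated 120 min at 25° C with shaking. IC₅₀ from one-site competition fit.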

[2] = biological target: T1, human calcitonin receptor; test: SPA competition on BHK cell membranes, 125I-calcitonin as radioligand (Assay VII)
How it was run: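 BHK hCTR membranes 35 ng/μL + SPA beads 0.05 mg/well; buffer 50 mM Hepes pH 7.4, 1 mM CaCl2, 5 mM MgCl₂, 0.1% OA, 0.02% Tween20. 120 min, 25° C., shaking. Scintillation count; IC50 by one-site binding competition.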

| Ratio hCT/hAmylin binding [1] | IC50 [2] [nM] | Binder |
| --- | --- | --- |
| 87.2 | 23.6 | K([γGlu-C20 diacid])CNTATCATQRLAHFLRHSSPNFGAIPSSTNVGHNTY-NH2 (disulfide 2-7; N-terminus assumed; SMILES CC[C@H](C)[C@H](NC(=O)[C@H](C)NC(=O)CNC(=O)[C@H](Cc1ccccc1)NC(=O)[C@H](CC(N)=O)NC(=O)[C@@H]1CCCN1C(=O)[C@H](CO)NC(=O)[C@H](CO)NC(=O)[C@H](Cc1c[nH]cn1)NC(=O)[C@H](CCCNC(=N)N)NC(=O)[C@H](CC(C)C)NC(=O)[C@H](Cc1ccccc1)NC(=O)[C@H](Cc1c[nH]cn1)NC(=O)[C@H](C)NC(=O)[C@H](CC(C)C)NC(=O)[C@H](CCCNC(=N)N)NC(=O)[C@H](CCC(N)=O)NC(=O)[C@@H](NC(=O)[C@H](C)NC(=O)[C@@H]1CSSC[C@H](NC(=O)[C@@H](N)CCCCNC(=O)CC[C@H](NC(=O)CCCCCCCCCCCCCCCCCCC(=O)O)C(=O)O)C(=O)N[C@@H](CC(N)=O)C(=O)N[C@@H]([C@@H](C)O)C(=O)N[C@@H](C)C(=O)N[C@@H]([C@@H](C)O)C(=O)N1)[C@@H](C)O)C(=O)N1CCC[C@H]1C(=O)N[C@@H](CO)C(=O)N[C@@H](CO)C(=O)N[C@H](C(=O)N[C@@H](CC(N)=O)C(=O)N[C@H](C(=O)NCC(=O)N[C@@H](Cc1c[nH]cn1)C(=O)N[C@@H](CC(N)=O)C(=O)N[C@H](C(=O)N[C@@H](Cc1ccc(O)cc1)C(N)=O)[C@@H](C)O)C(C)C)[C@@H](C)O, also called compound 81) |
| 45.5 | 18 | K([γGlu-C20 diacid])CNTATCATQRLAHFLRHSSPNFGAIPSSTNVGSHTY-NH2 (disulfide 2-7; N-terminus assumed; SMILES CC[C@H](C)[C@H](NC(=O)[C@H](C)NC(=O)CNC(=O)[C@H](Cc1ccccc1)NC(=O)[C@H](CC(N)=O)NC(=O)[C@@H]1CCCN1C(=O)[C@H](CO)NC(=O)[C@H](CO)NC(=O)[C@H](Cc1c[nH]cn1)NC(=O)[C@H](CCCNC(=N)N)NC(=O)[C@H](CC(C)C)NC(=O)[C@H](Cc1ccccc1)NC(=O)[C@H](Cc1c[nH]cn1)NC(=O)[C@H](C)NC(=O)[C@H](CC(C)C)NC(=O)[C@H](CCCNC(=N)N)NC(=O)[C@H](CCC(N)=O)NC(=O)[C@@H](NC(=O)[C@H](C)NC(=O)[C@@H]1CSSC[C@H](NC(=O)[C@@H](N)CCCCNC(=O)CC[C@H](NC(=O)CCCCCCCCCCCCCCCCCCC(=O)O)C(=O)O)C(=O)N[C@@H](CC(N)=O)C(=O)N[C@@H]([C@@H](C)O)C(=O)N[C@@H](C)C(=O)N[C@@H]([C@@H](C)O)C(=O)N1)[C@@H](C)O)C(=O)N1CCC[C@H]1C(=O)N[C@@H](CO)C(=O)N[C@@H](CO)C(=O)N[C@H](C(=O)N[C@@H](CC(N)=O)C(=O)N[C@H](C(=O)NCC(=O)N[C@@H](CO)C(=O)N[C@@H](Cc1c[nH]cn1)C(=O)N[C@H](C(=O)N[C@@H](Cc1ccc(O)cc1)C(N)=O)[C@@H](C)O)C(C)C)[C@@H](C)O, also called compound 66) |
